For the data set, the target named is T1, BdSWN5 (Brachypodium distachyon, UniProt I2E2W5 1-346).
T1 sequence: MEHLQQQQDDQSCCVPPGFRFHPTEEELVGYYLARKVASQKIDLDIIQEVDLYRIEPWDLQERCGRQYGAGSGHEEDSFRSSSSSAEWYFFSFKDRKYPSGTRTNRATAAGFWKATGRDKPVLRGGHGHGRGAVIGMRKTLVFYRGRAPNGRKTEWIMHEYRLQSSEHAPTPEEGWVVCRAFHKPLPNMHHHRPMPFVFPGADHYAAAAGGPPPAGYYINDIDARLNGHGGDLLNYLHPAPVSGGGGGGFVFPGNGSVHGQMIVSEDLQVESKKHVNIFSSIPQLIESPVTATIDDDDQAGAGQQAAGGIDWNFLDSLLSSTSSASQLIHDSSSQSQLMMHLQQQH
The data set is described as follows: competition.

B1: SNBE2 M2 motif (dsDNA)
DNA 1: TTTTACATTGCATATGCTTTGTATCAATTGCCCAA
DNA 2: TTGGGCAATTGATACAAAGCATATGCAATGTAAAA
Take B1: the binding result is listed as “no binding”.

B2: SNBE1 M1 motif (dsDNA)
DNA 1: AGCATACATTTATAGGAAGCGTATTCTCGCAGTCA
DNA 2: TGACTGCGAGAATACGCTTCCTATAAATGTATGCT
For B2, the binding result was “no binding”.

Source of the values: article PMC3598421.
